Numbered stars: 1 amine (or outer) side, 2 acyl side, 3 side chain; on linkers, the order of the positions; unused ones are H or OH. Square brackets hold non-standard residues; d marks the D form. Side chains are listed from the residue outwards. * marks the point of attachment. C20 diacid = O=C(O)CCCCCCCCCCCCCCCCCCC(=O)*; C18 diacid = O=C(O)CCCCCCCCCCCCCCCCC(=O)*; C16 diacid = O=C(O)CCCCCCCCCCCCCCC(=O)*; γGlu = O=C(O)[C@H](CCC(=O)[*:2])N[*:1]; Chem. 28 = not defined here; AEEA = NCCOCCOCC(=O)O; Aib = CC(C)(N)C(=O)O
B1: Compound 15 (peptide)
peptide: H[Aib]HGTFTSDYSILLEEQAAREFIEWLLAGGPSK([AEEA-AEEA-γGlu-C18 diacid])GAPPPSGGGEASELSTAALGRLSAELHELATLPRTETGSGSP-NH2
B2: Compound 17 (peptide)
peptide: H[Aib]HGTFTSDYSILLEEQAAREFIEWLLAGGPSK([AEEA-AEEA-γGlu-C16 diacid])GEASELSTAALGRLSAELHRLATLPRTETGSGSP-NH2
B3: Compound 12 (peptide)
peptide: H[Aib]HGTFTSDYSILLEEQAAREFIEWLLAGGPSK([AEEA-AEEA-γGlu-C16 diacid])GAPPPSGGGEASELSTAALGRLSAELHELATLPRTETGSGSP-NH2
B4: Compound 16 (peptide)
peptide: H[Aib]HGTFTSDYSILLEEQAAREFIEWLLAGGPSK([AEEA-AEEA-γGlu-C20 diacid])GAPPPSGGGEASELSTAALGRLSAELHELATLPRTETGSGSP-NH2
B5: Compound 14 (peptide)
peptide: H[Aib]HGTFTSDYSILLEEQAAREFIEWLLAGGPSK([AEEA-AEEA-γGlu-C18 diacid])GAPPPSGGGGASELSTAALGRLSAELHRLATLPRTETGSGSP-NH2
B6: Compound 114 (peptide)
peptide: Y[Aib]EGTFTSDYSILLEEQAAREFIEWLLAGGPSSGAGQAPGQAPGASHLSTAALARLSAELHK([AEEA-AEEA-γGlu-C18 diacid])LATLPRTETGSGSP-NH2
B7: Compound 26 (peptide)
peptide: Y[Aib]EGTFTSDYSILLEEQAAREFIEWLLAGGPSK(Chem. 28)GEASELSTAALGRLSAELHELATLPRTETGSGSP-NH2
modifications: reading uncertain

System: not listed separately
Assay: Chemical stability assessment in formulation (UPLC-UV-MS purity loss at 37° C.)
Assay type: physicochemical
Details: 8 mM phosphate buffer pH 7.4, 1 mg/mL, 2 weeks
Description: The assay was performed to investigate the extend of chemical degradation in vitro over time upon incubation at 37° C. for a period of 2 weeks.
Peptide solutions were prepared by dissolving freeze-dried powder in 8 mM phosphate buffer pH 7.4 to a target of 1 mg/mL. The pH of peptide solutions was adjusted to 7.4 with 0.02 M HCl or 0.02 M NaOH. Samples were filled in Agilent HPLC vials with fixed insert. Vials were capped to prevent evaporation. The HPLC vials were incubated at 37° C. and samples were withdrawn at different time points over a period of 2 weeks, flash frozen at −80° C., and stored at −20° C. until analysis.
A flow-rate of 100 μL/min was delivered with a Binary solvent manager pump having 0.1% formic acid in water as solvent A and 0.1% formic acid in acetonitrile as solvent B. Gradient elution was carried out using 20% B from 0 to 2 min followed by 20 to 50% B from 2 to 20 min in a total run time of 30 min.

| Purity loss per week at 37° C. [%] | Molecule |
| --- | --- |
| 1.0 | CC[C@H](C)[C@H](NC(=O)[C@H](CCC(=O)O)NC(=O)[C@H](CCC(=O)O)NC(=O)[C@H](CC(C)C)NC(=O)[C@H](CC(C)C)NC(=O)[C@H](CCCCNC(=O)COCCOCCNC(=O)COCCOCCNC(=O)CC[C@H](NC(=O)CCCCCCCCCCCCCCCCCCC(=O)O)C(=O)O)NC(=O)[C@H](CO)NC(=O)[C@H](Cc1ccc(O)cc1)NC(=O)[C@H](CC(=O)O)NC(=O)[C@H](CO)NC(=O)[C@@H](NC(=O)[C@H](Cc1ccccc1)NC(=O)[C@@H](NC(=O)CNC(=O)[C@H](CCC(=O)O)NC(=O)C(C)(C)NC(=O)[C@@H](N)Cc1ccc(O)cc1)[C@@H](C)O)[C@@H](C)O)C(=O)N[C@@H](C)C(=O)N[C@@H](C)C(=O)N[C@@H](CCCNC(=N)N)C(=O)N[C@@H](CCC(=O)O)C(=O)N[C@@H](Cc1ccccc1)C(=O)N[C@H](C(=O)N[C@@H](CCC(=O)O)C(=O)N[C@@H](Cc1c[nH]c2ccccc12)C(=O)N[C@@H](CC(C)C)C(=O)N[C@@H](CC(C)C)C(=O)N[C@@H](C)C(=O)NCC(=O)NCC(=O)N1CCC[C@H]1C(=O)N[C@@H](CO)C(=O)N[C@@H](CO)C(=O)NCC(=O)N[C@@H](C)C(=O)NCC(=O)N[C@@H](C)C(=O)N[C@@H](CO)C(=O)N[C@@H](CCC(=O)O)C(=O)N[C@@H](CC(C)C)C(=O)N[C@@H](CO)C(=O)N[C@H](C(=O)N[C@@H](C)C(=O)N[C@@H](CCC(N)=O)C(=O)N[C@@H](CC(C)C)C(=O)NCC(=O)N[C@@H](CCCNC(=N)N)C(=O)N[C@@H](CC(C)C)C(=O)N[C@@H](CO)C(=O)N[C@@H](C)C(=O)N[C@@H](CCC(=O)O)C(=O)N[C@@H](CC(C)C)C(=O)N[C@@H](Cc1c[nH]cn1)C(=O)N[C@@H](CCC(N)=O)C(=O)N[C@@H](CC(C)C)C(=O)N[C@@H](C)C(=O)N[C@H](C(=O)N[C@@H](CCC(=O)O)C(=O)N1CCC[C@H]1C(=O)N[C@@H](CCCNC(=N)N)C(=O)N[C@H](C(=O)N[C@@H](CCC(=O)O)C(=O)N[C@H](C(=O)NCC(=O)N[C@@H](CO)C(=O)NCC(=O)N[C@@H](CO)C(=O)N1CCC[C@H]1C(N)=O)[C@@H](C)O)[C@@H](C)O)[C@@H](C)O)[C@@H](C)O)[C@@H](C)CC [Compound 186] |
| 1.7 | CC[C@H](C)[C@H](NC(=O)[C@H](CCC(=O)O)NC(=O)[C@H](CCC(=O)O)NC(=O)[C@H](CC(C)C)NC(=O)[C@H](CC(C)C)NC(=O)[C@H](CCCCNC(=O)COCCOCCNC(=O)COCCOCCNC(=O)CC[C@H](NC(=O)CCCCCCCCCCCCCCCCCCC(=O)O)C(=O)O)NC(=O)[C@H](CO)NC(=O)[C@H](Cc1ccc(O)cc1)NC(=O)[C@H](CC(=O)O)NC(=O)[C@H](CO)NC(=O)[C@@H](NC(=O)[C@H](Cc1ccccc1)NC(=O)[C@@H](NC(=O)CNC(=O)[C@H](CCC(=O)O)NC(=O)C(C)(C)NC(=O)[C@@H](N)Cc1ccc(O)cc1)[C@@H](C)O)[C@@H](C)O)C(=O)N[C@@H](C)C(=O)N[C@@H](C)C(=O)N[C@@H](CCCNC(=N)N)C(=O)N[C@@H](CCC(=O)O)C(=O)N[C@@H](Cc1ccccc1)C(=O)N[C@H](C(=O)N[C@@H](CCC(=O)O)C(=O)N[C@@H](Cc1c[nH]c2ccccc12)C(=O)N[C@@H](CC(C)C)C(=O)N[C@@H](CC(C)C)C(=O)N[C@@H](C)C(=O)NCC(=O)NCC(=O)N1CCC[C@H]1C(=O)N[C@@H](CO)C(=O)N[C@@H](CO)C(=O)N[C@@H](CCC(=O)O)C(=O)N[C@@H](C)C(=O)NCC(=O)N[C@@H](C)C(=O)N[C@@H](CO)C(=O)N[C@@H](Cc1c[nH]cn1)C(=O)N[C@@H](CC(C)C)C(=O)N[C@@H](CO)C(=O)N[C@H](C(=O)N[C@@H](C)C(=O)N[C@@H](CCC(N)=O)C(=O)N[C@@H](CC(C)C)C(=O)NCC(=O)N[C@@H](CCCNC(=N)N)C(=O)N[C@@H](CC(C)C)C(=O)N[C@@H](CO)C(=O)N[C@@H](C)C(=O)N[C@@H](CCC(=O)O)C(=O)N[C@@H](CC(C)C)C(=O)N[C@@H](Cc1c[nH]cn1)C(=O)N[C@@H](CCC(N)=O)C(=O)N[C@@H](CC(C)C)C(=O)N[C@@H](C)C(=O)N[C@H](C(=O)N[C@@H](CCC(=O)O)C(=O)N1CCC[C@H]1C(=O)N[C@@H](CCCNC(=N)N)C(=O)N[C@H](C(=O)N[C@@H](CCC(=O)O)C(=O)N[C@H](C(=O)NCC(=O)N[C@@H](CO)C(=O)NCC(=O)N[C@@H](CO)C(=O)N1CCC[C@H]1C(N)=O)[C@@H](C)O)[C@@H](C)O)[C@@H](C)O)[C@@H](C)O)[C@@H](C)CC [Compound 185] |

Biological target: T1, human GIP receptor (human, UniProt P48546 22-466)
T1 sequence (looked up): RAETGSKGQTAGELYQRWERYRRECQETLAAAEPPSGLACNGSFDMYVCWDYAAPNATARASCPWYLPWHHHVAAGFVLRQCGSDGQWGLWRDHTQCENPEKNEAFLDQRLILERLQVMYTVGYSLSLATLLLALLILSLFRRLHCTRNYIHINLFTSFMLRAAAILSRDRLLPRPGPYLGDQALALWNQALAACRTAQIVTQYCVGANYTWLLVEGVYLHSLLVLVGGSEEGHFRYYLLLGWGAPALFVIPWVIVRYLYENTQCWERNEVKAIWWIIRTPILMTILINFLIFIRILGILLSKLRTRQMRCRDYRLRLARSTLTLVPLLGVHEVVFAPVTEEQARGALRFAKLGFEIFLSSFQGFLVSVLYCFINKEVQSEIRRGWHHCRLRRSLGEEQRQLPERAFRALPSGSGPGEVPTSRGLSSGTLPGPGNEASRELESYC
Assay: cell-based or functional assay
Details: not given

| hGIPR Potency, 1% HSA, EC50 [pM] | Molecule |
| --- | --- |
| 356 | B1 |
| 36.9 | B2 |
| 59.1 | B3 |
| 485 | B4 |
| 254 | B5 |
| 17.2 | B6 |
| 558 | B7 |

Biological target: T2, human GLP-1 receptor (human, UniProt P43220 24-463)
Assay: cell-based or functional assay
Details: not given

| hGLP-1R Potency, 1% HSA, EC50 [pM] | Molecule |
| --- | --- |
| 103 | B1 |
| 13.1 | B2 |
| 10.2 | B3 |
| 238 | B4 |
| 75.9 | B5 |
| 126 | B6 |
| 1680 | B7 |

Biological target: T3, human amylin-3(a) receptor (human, UniProt P30988 25-474; O60896 24-148)
T3 sequence (looked up) 1: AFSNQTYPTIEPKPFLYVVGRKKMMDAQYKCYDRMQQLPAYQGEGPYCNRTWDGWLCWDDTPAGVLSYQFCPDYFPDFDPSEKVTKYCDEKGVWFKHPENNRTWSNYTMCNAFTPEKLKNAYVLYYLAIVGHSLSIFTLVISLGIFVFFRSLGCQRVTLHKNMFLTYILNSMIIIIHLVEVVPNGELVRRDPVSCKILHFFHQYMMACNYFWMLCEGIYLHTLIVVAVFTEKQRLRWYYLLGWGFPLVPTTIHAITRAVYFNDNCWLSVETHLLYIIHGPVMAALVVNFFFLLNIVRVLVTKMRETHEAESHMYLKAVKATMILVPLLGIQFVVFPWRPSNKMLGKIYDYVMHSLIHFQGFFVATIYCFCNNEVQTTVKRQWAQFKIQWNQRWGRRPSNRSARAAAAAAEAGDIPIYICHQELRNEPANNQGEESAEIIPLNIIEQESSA
T3 sequence (looked up) 2: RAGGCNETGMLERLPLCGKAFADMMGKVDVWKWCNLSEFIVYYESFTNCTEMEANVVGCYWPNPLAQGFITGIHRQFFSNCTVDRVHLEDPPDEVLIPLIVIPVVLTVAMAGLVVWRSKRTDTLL
Assay: cell-based or functional assay
Details: not given

| hAMYR3 Potency, 1% HSA, EC50 [pM] | Molecule |
| --- | --- |
| 82.2 | B1 |
| 33.6 | B2 |
| 55 | B3 |
| 166 | B4 |
| 33.4 | B5 |
| 45.2 | B6 |
| 349 | B7 |

Biological target: T1, human GIP receptor
Assay: cell-based or functional assay
Details: not given
Remark: another data set of the same source

| hGIPR Potency, no HSA, EC50 [pM] | Molecule |
| --- | --- |
| 3.2 | B1 |
| 5.04 | B2 |
| 2.62 | B3 |
| 4.27 | B4 |
| 5.84 | B5 |
| 4.29 | B6 |
| 1.75 | B7 |

Biological target: T2, human GLP-1 receptor
Assay: cell-based or functional assay
Details: not given
Remark: another data set of the same source

| hGLP-1R Potency, no HSA, EC50 [pM] | Molecule |
| --- | --- |
| 1.41 | B1 |
| 2.72 | B2 |
| 0.8 | B3 |
| 2.74 | B4 |
| 2.05 | B5 |
| 43.3 | B6 |
| 20.7 | B7 |

Biological target: T3, human amylin-3(a) receptor
Assay: cell-based or functional assay
Details: not given
Remark: another data set of the same source

| hAMYR3 Potency, no HSA, EC50 [pM] | Molecule |
| --- | --- |
| 5.01 | B1 |
| 5.13 | B2 |
| 6.23 | B3 |
| 5.7 | B4 |
| 2.21 | B5 |
| 2.27 | B6 |
| 11.8 | B7 |
